Measured values reported in patent publication US20250339569A1 (3B PHARMACEUTICALS, published 2025).
Values belong to the binder of their own block, whether it stands above or below them. Starred links: 1 amine or outer side, 2 acyl side, 3 side chain; linkers in the order of their positions; H or OH if unused. Positions of bridges follow the written chain, without caps; N, C: chain ends. Non-standard residues stand in square brackets, D forms with d. Primed or numbered codes have the meaning given here. *: point of attachment. Af3(DImAc) = 3-aminophenylalanine acylated on the ring amine with 2-{2,5-dioxo-octahydroimidazo[4,5-d]imidazolidin-1-yl}acetic acid, O=C(CN1C(=O)NC2NC(=O)NC21)Nc1cccc(C[C@H](N[*:1])C(=O)[*:2])c1; Af3(HySuc) = 3-amino-L-phenylalanine acylated on the ring amine with 2-(3,6-dioxo-1,2,3,6-tetrahydropyridazin-4-yl)acetic acid, O=C(Cc1cc(=O)[nH][nH]c1=O)Nc1cccc(C[C@H](N[*:1])C(=O)[*:2])c1; Af3(CMPy) = 3-amino-L-phenylalanine acylated on the ring amine with 5-cyano-1-methyl-1H-pyrazole-4-carboxylic acid, Cn1ncc(C(=O)Nc2cccc(C[C@H](N[*:1])C(=O)[*:2])c2)c1C#N; af3(ac-glu) = lower case: 3-amino-D-phenylalanine, ring amine acylated with N-acetyl-D-glutamic acid, CC(=O)N[C@H](CCC(=O)[*:3])C(=O)Nc1cccc(C[C@@H](N[*:1])C(=O)[*:2])c1; af3(ac-asp) = lower case: 3-amino-D-phenylalanine, ring amine acylated with N-acetyl-D-aspartic acid, CC(=O)N[C@H](CC(=O)[*:3])C(=O)Nc1cccc(C[C@@H](N[*:1])C(=O)[*:2])c1; Af3(TzPr) = 3-amino-L-phenylalanine acylated on the ring amine with 3-(1H-1,2,4-triazol-3-yl)propanoic acid, O=C(CCc1nc[nH]n1)Nc1cccc(C[C@H](N[*:1])C(=O)[*:2])c1; Af3(Ac-Glu) = 3-aminophenylalanine acylated on the ring amine with N-acetyl-glutamic acid, CC(=O)N[C@@H](CCC(=O)[*:3])C(=O)Nc1cccc(C[C@H](N[*:1])C(=O)[*:2])c1; Aph(HO-Succinyl) = 4-aminophenylalanine acylated on the ring amine with succinic acid (free carboxyl), O=C(CCC(=O)[*:3])Nc1ccc(C[C@H](N[*:1])C(=O)[*:2])cc1; Aph(4SaBz) = 4-aminophenylalanine, ring amine acylated with 4-sulfamoylbenzoic acid, NS(=O)(=O)c1ccc(C(=O)Nc2ccc(C[C@H](N[*:1])C(=O)[*:2])cc2)cc1; Af3(HO-Dga) = 3-aminophenylalanine, ring amine acylated with carboxymethoxy-acetic acid, O=C(COCC(=O)[*:3])Nc1cccc(C[C@H](N[*:1])C(=O)[*:2])c1; Af3(HYDAc) = 3-aminophenylalanine, ring amine acylated with hydantoin-5-acetic acid, O=C(CC1NC(=O)NC1=O)Nc1cccc(C[C@H](N[*:1])C(=O)[*:2])c1; 3MeBn″ = 3-methylbenzylidene, m-xylene unit (from alpha,alpha'-dibromo-m-xylene) joined to both Cys S by thioether linkages; Af3(Ac-Asp) = 3-aminophenylalanine acylated on the ring amine with N-acetyl-aspartic acid; APAc″ = 2-(4-(amino)piperidin-1-yl)acetic acid, NC1CCN(CC(=O)*)CC1; DOTA = O=C(O)CN1CCN(CC(=O)O)CCN(CC(=O)*)CCN(CC(=O)O)CC1; mXylylene = c1cc(C[*:1])cc(C[*:2])c1; N4BzlCONH2 = not defined here; N4BzlCN = not defined here; N4BzlCl = not defined here; NOAzOMe = not defined here; PPAc″ = not defined here; APAc = not defined here; Dap = NC[C@H](N)C(=O)O; AEEA = NCCOCCOCC(=O)O; βAla = NCCC(=O)O; Sar = CNCC(=O)O

What was measured:
[1] = molecular target: human carbonic anhydrase 9 (CAIX) (human, UniProt Q16790 38-459); test: FACS competition on HT-29 cells, competitor tracer 3BP-4149; category B = pIC50 7.1-8.0
Description: (§1) CAIX-expressing human HT-29 colorectal cancer cells (DSMZ, RRID: CVCL_0320) were cultured in McCoys's 5A modified medium (Biochrom, #F1015) including 10% fetal calf serum (FCS), 2 mM L-glutamine, 100 U/ml penicillin and 100 μg/mL streptomycin. Cells were detached with Accutase (Biolegend, #423201) and washed in FACS buffer (PBS including 1% FCS). Cells were diluted in FACS buffer to a final concentration of 500.000 cells per ml. 200 μL of the cell suspension were transferred to a u-shaped non-binding 96-well plate (Greiner) and cells were washed in ice-cold FACS buffer.
(§2) When biotinylated compounds were used an additional incubation step with 1 μg/mL APC-Streptavidin (Miltenyi; #130-106-791) in 50 μL FACS buffer for 30 minutes on ice was performed.
(§3) Cells were washed twice with ice-cold FACS buffer and analyzed in an Attune NxT flow cytometer (Thermo Fisher). Median fluorescence intensities (MFI) of the APC/Cy5-channel were calculated by Attune NxT software.

[2] = molecular target: T1, Fc-fusion protein of human carbonic anhydrase IX (human, UniProt Q16790 38-414); test: SPR, captured hCAIX-Fc; pKD category A: >8.0
[3] = molecular target: T1, Fc-fusion protein of human carbonic …; test: SPR, captured hCAIX-Fc; t1/2 category C: 2.1-5.0 min
[4] = molecular target: human carbonic anhydrase IX (CAIX) (human, UniProt Q16790 38-459); test: FACS competition, HT-29 cells, tracer 3BP-4149; pIC50 category B: 7.1-8.0
Description: as §1, §2, §3

[5] = molecular target: human carbonic anhydrase 9 (CAIX) (human, UniProt Q16790 38-459); test: FACS competition on HT-29 cells against tracer 3BP-2776; pIC50 category C = pIC50 6.1-7.0
Description: as §1, §2, §3

pIC50 [1]: 7.1 to 8 pic50
Binder: {DOTA-APAc″}-VYCE[dP]D[Af3(Ac-Asp)]LTWSC-NH2 (linker 3-12 via mXylylene) [3BP-4363]

pIC50 [1]: 7.1 to 8 pic50
B1: 3BP-4262 (peptide)
peptide: {DOTA-AEEA}-DCE[dP]DWLTW[Dap]C-NH2
modifications: lactam 10-1; linker 2-11 via mXylylene
SMILES: CC(C)C[C@@H]1NC(=O)[C@H](Cc2c[nH]c3ccccc23)NC(=O)[C@H](CC(=O)O)NC(=O)[C@H]2CCCN2C(=O)[C@H](CCC(=O)O)NC(=O)[C@@H]2CSCc3cccc(c3)CSC[C@@H](C(N)=O)NC(=O)[C@H](CNC(=O)C[C@H](NC(=O)COCCOCCNC(=O)CN3CCN(CC(=O)O)CCN(CC(=O)O)CCN(CC(=O)O)CC3)C(=O)N2)NC(=O)[C@H](Cc2c[nH]c3ccccc23)NC(=O)[C@H]([C@@H](C)O)NC1=O

pKD [2]: > 8 pkd
t1/2 (half-life of the complex, SPR) [3]: 2.1 to 5 min
pIC50 [4]: 7.1 to 8 pic50
Binder: {DOTA-PPAc″}-YCE[dP]DWLTWSC-NH2 (linker 2-11 via mXylylene; reading uncertain) [3BP-4446]

pIC50 [1]: 7.1 to 8 pic50
Binder: {DOTA-APAc″}-VYCE[dP]D[af3(ac-glu)]LTWSC-NH2 (linker 3-12 via mXylylene; not fully specified) [3BP-4362]

pIC50 [1]: 7.1 to 8 pic50
Binder: {DOTA-APAc″}-VYCE[dP]D[Af3(Ac-Glu)]LTWSC-NH2 (linker 3-12 via mXylylene) [3BP-4361]

pIC50 [1]: 7.1 to 8 pic50
Binder: {DOTA-APAc″}-VYCE[dP]D[Af3(HySuc)]LTWSC-NH2 (linker 3-12 via mXylylene) [3BP-4322]

pKD [2]: > 8 pkd
t1/2 (half-life of the complex, SPR) [3]: 2.1 to 5 min
pIC50 [4]: 7.1 to 8 pic50
Binder: {DOTA-APAc}-VYCE[dP]D[Aph(4SaBz)]LTWSC-NH2 (linker 3-12 via mXylylene; reading uncertain) [3BP-4398]

pIC50 [1]: 7.1 to 8 pic50
Binder: {DOTA-APAc″}-VYCE[dP]D[Af3(TzPr)]LTWSC-NH2 (linker 3-12 via mXylylene) [3BP-4324]

pKD [2]: > 8 pkd
t1/2 (half-life of the complex, SPR) [3]: 2.1 to 5 min
pIC50 [4]: 7.1 to 8 pic50
Binder: {DOTA-APAc}-VYCE[dP]D[Af3(HYDAc)]LTWSC-NH2 (linker 3-12 via mXylylene; reading uncertain) [3BP-4371]

pIC50 [1]: 7.1 to 8 pic50
Binder: {DOTA-APAc″}-VYCE[dP]E(N4BzlSO2Me)WLTWSC-NH2 (linker 3-12 via mXylylene) [3BP-4333]

pIC50 [1]: 7.1 to 8 pic50
Binder: {DOTA-APAc″}-VYCE[dP]E(N4BzlCN)WLTWSC-NH2 (linker 3-12 via mXylylene; not fully specified; reading uncertain) [3BP-4340]

pIC50 [1]: 7.1 to 8 pic50
Binder: {DOTA-APAc″}-VYCE[dP]E(NOAzOMe)WLTWSC-NH2 (linker 3-12 via mXylylene; reading uncertain) [3BP-4339]

pIC50 [1]: 7.1 to 8 pic50
Binder: {DOTA-APAc″}-VYCE[dP]E(N4BzlCl)WLTWSC-NH2 (linker 3-12 via mXylylene; reading uncertain) [3BP-4334]

pIC50 [1]: 7.1 to 8 pic50
Binder: {DOTA-APAc″}-VYCE[dP]E(N4BzlCONH2)WLTWSC-NH2 (linker 3-12 via mXylylene; not fully specified; reading uncertain) [3BP-4345]

pIC50 [5]: 6.1 to 7 pic50
B2: 3BP-3325 (peptide)
peptide: Ac-CE[Sar]DWLTWQC-NH2
modifications: linker 1-10 via mXylylene
SMILES: CC(=O)N[C@H]1CSCc2cccc(c2)CSC[C@@H](C(N)=O)NC(=O)[C@H](CCC(N)=O)NC(=O)[C@H](Cc2c[nH]c3ccccc23)NC(=O)[C@H]([C@@H](C)O)NC(=O)[C@H](CC(C)C)NC(=O)[C@H](Cc2c[nH]c3ccccc23)NC(=O)[C@H](CC(=O)O)NC(=O)CN(C)C(=O)[C@H](CCC(=O)O)NC1=O
notes: also called Ac-[Cys(3MeBn)-Glu-Nmg-Asp-Trp-Leu-Thr-Trp-Gln-Cys]-NH2

pIC50 [1]: 7.1 to 8 pic50
Binder: {DOTA-APAc″}-VYCE[dP]D[Aph(HO-Succinyl)]LTWSC-NH2 (linker 3-12 via mXylylene) [3BP-4356]

pIC50 [1]: 7.1 to 8 pic50
Binder: {DOTA-APAc″}-VYCE[dP]D[Af3(DImAc)]LTWSC-NH2 (linker 3-12 via mXylylene) [3BP-4341]

pIC50 [5]: 6.1 to 7 pic50
B3: 3BP-3055 (peptide)
peptide: Ac-VYCEGDWATWQC-NH2
modifications: linker 3-12 via mXylylene
SMILES: CC(=O)N[C@H](C(=O)N[C@@H](Cc1ccc(O)cc1)C(=O)N[C@H]1CSCc2cccc(c2)CSC[C@@H](C(N)=O)NC(=O)[C@H](CCC(N)=O)NC(=O)[C@H](Cc2c[nH]c3ccccc23)NC(=O)[C@H]([C@@H](C)O)NC(=O)[C@H](C)NC(=O)[C@H](Cc2c[nH]c3ccccc23)NC(=O)[C@H](CC(=O)O)NC(=O)CNC(=O)[C@H](CCC(=O)O)NC1=O)C(C)C

pIC50 [5]: 6.1 to 7 pic50
B4: 3BP-3309 (peptide)
peptide: Ac-VYCE[Sar]DWL[dA]WQC-NH2
modifications: linker 3-12 via mXylylene
SMILES: CC(=O)N[C@H](C(=O)N[C@@H](Cc1ccc(O)cc1)C(=O)N[C@H]1CSCc2cccc(c2)CSC[C@@H](C(N)=O)NC(=O)[C@H](CCC(N)=O)NC(=O)[C@H](Cc2c[nH]c3ccccc23)NC(=O)[C@@H](C)NC(=O)[C@H](CC(C)C)NC(=O)[C@H](Cc2c[nH]c3ccccc23)NC(=O)[C@H](CC(=O)O)NC(=O)CN(C)C(=O)[C@H](CCC(=O)O)NC1=O)C(C)C
notes: also called Ac-Val-Tyr-[Cys(3MeBn)-Glu-Nmg-Asp-Trp-Leu-ala-Trp-Gln-Cys]-NH2

pIC50 [1]: 7.1 to 8 pic50
Binder: {DOTA-APAc″}-VYCE[dP]D[Af3(CMPy)]LTWSC-NH2 (linker 3-12 via mXylylene) [3BP-4305]

pIC50 [1]: 7.1 to 8 pic50
Binder: {DOTA-APAc″}-VYCE[dP]D[af3(ac-asp)]LTWSC-NH2 (linker 3-12 via mXylylene; not fully specified) [3BP-4364]

pKD [2]: > 8 pkd
t1/2 (half-life of the complex, SPR) [3]: 2.1 to 5 min
pIC50 [4]: 7.1 to 8 pic50
Binder: {DOTA-APAc}-VYCE[dP]D[Af3(HO-Dga)]LTWSC-NH2 (linker 3-12 via 3MeBn″; reading uncertain) [3BP-4368]

pIC50 [5]: 6.1 to 7 pic50
B5: 3BP-3604 (peptide)
peptide: Ac-VY[dC][βAla]WLTWSC-NH2
modifications: linker 3-10 via mXylylene
SMILES: CC(=O)N[C@H](C(=O)N[C@@H](Cc1ccc(O)cc1)C(=O)N[C@@H]1CSCc2cccc(c2)CSC[C@@H](C(N)=O)NC(=O)[C@H](CO)NC(=O)[C@H](Cc2c[nH]c3ccccc23)NC(=O)[C@H]([C@@H](C)O)NC(=O)[C@H](CC(C)C)NC(=O)[C@H](Cc2c[nH]c3ccccc23)NC(=O)CCNC1=O)C(C)C
notes: also called Ac-Val-Tyr-[cys(3mebn)-Bal-Trp-Leu-Thr-Trp-Ser-Cys]-NH2
